Columns and labels:
Test in all cases: BLI; Octet RED96; client biotinylated and loaded on streptavidin sensors; Spy or Spy variant in solution at 0.25, 0.5, 1, 1.5 and 2 μM; 40 mM HEPES, 150 mM NaCl, pH 7.5; Kd calculated as koff/kon
Details in all cases: both partners purified
Spy_(29-124) R43D = molecular target: T1, Spy_(29-124) R43D (UniProt P77754 52-147, R43D)
T1 construct: source: E. coli BL21 (DE3), purified (Ni-NTA, cation exchange, SEC); not shown: His6, N-terminal, cleaved; SUMO, N-terminal, cleaved
T1 sequence (looked up): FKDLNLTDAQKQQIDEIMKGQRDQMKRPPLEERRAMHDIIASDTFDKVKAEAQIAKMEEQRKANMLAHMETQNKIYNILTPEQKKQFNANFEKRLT

Spy_(29-124) R50D = molecular target: T2, Spy_(29-124) R50D (UniProt P77754 52-147, R50D)
T2 construct: source: E. coli BL21 (DE3), purified (Ni-NTA, cation exchange, SEC); not shown: His6, N-terminal, cleaved; SUMO, N-terminal, cleaved
T2 sequence (looked up): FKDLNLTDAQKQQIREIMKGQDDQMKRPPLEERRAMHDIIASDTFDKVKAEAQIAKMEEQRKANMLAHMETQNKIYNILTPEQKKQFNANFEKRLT

Spy_(29-124) K54D R55D = molecular target: T3, Spy_(29-124) K54D R55D (UniProt P77754 52-147, K54D | R55D)
T3 construct: source: E. coli BL21 (DE3), purified (Ni-NTA, cation exchange, SEC); not shown: His6, N-terminal, cleaved; SUMO, N-terminal, cleaved
T3 sequence (looked up): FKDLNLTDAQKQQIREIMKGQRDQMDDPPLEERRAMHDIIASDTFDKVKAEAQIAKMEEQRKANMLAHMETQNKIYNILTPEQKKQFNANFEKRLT

Spy_(29-124) R61D R62D = molecular target: T4, Spy_(29-124) R61D R62D (UniProt P77754 52-147, R61D | R62D)
T4 construct: source: E. coli BL21 (DE3), purified (Ni-NTA, cation exchange, SEC); not shown: His6, N-terminal, cleaved; SUMO, N-terminal, cleaved
T4 sequence (looked up): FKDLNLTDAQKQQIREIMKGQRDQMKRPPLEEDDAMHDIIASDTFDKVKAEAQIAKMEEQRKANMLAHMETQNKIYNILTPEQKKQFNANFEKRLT

Spy_(29-124) R89D = molecular target: T5, Spy_(29-124) R89D (UniProt P77754 52-147, R89D)
T5 construct: source: E. coli BL21 (DE3), purified (Ni-NTA, cation exchange, SEC); not shown: His6, N-terminal, cleaved; SUMO, N-terminal, cleaved
T5 sequence (looked up): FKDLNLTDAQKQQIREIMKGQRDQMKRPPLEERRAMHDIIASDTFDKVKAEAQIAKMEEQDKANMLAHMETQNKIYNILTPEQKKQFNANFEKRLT

Spy_(29-124) H96D = molecular target: T6, Spy_(29-124) H96D (UniProt P77754 52-147, H96D)
T6 construct: source: E. coli BL21 (DE3), purified (Ni-NTA, cation exchange, SEC); not shown: His6, N-terminal, cleaved; SUMO, N-terminal, cleaved
T6 sequence (looked up): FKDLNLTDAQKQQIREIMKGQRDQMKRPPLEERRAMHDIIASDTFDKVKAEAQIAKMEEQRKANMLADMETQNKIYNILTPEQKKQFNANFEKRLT

Spy_(29-124) K121D R122D = molecular target: T7, Spy_(29-124) K121D R122D (UniProt P77754 52-147, K121D | R122D)
T7 construct: source: E. coli BL21 (DE3), purified (Ni-NTA, cation exchange, SEC); not shown: His6, N-terminal, cleaved; SUMO, N-terminal, cleaved
T7 sequence (looked up): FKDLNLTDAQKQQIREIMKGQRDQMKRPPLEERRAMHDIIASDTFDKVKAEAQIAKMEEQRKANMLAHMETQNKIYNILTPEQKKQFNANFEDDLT

Spy D26E = molecular target: T8, Spy D26E (UniProt P77754 24-161, D26E)
T8 construct: source: E. coli BL21 (DE3), purified (Ni-NTA, cation exchange, SEC); not shown: His6, N-terminal, cleaved; SUMO, N-terminal, cleaved
T8 sequence (looked up): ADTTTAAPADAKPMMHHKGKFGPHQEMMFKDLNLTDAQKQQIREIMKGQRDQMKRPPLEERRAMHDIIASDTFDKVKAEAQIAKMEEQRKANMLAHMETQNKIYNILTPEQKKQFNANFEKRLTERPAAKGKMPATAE

Spy D26A = molecular target: T9, Spy D26A (UniProt P77754 24-161, D26A)
T9 construct: source: E. coli BL21 (DE3), purified (Ni-NTA, cation exchange, SEC); not shown: His6, N-terminal, cleaved; SUMO, N-terminal, cleaved
T9 sequence (looked up): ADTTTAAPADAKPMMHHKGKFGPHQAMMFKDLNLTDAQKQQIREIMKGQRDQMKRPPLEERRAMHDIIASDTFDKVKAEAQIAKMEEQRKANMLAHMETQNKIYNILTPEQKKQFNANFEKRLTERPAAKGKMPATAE

Spy D26R = molecular target: T10, Spy D26R (UniProt P77754 24-161, D26R)
T10 construct: source: E. coli BL21 (DE3), purified (Ni-NTA, cation exchange, SEC); not shown: His6, N-terminal, cleaved; SUMO, N-terminal, cleaved
T10 sequence (looked up): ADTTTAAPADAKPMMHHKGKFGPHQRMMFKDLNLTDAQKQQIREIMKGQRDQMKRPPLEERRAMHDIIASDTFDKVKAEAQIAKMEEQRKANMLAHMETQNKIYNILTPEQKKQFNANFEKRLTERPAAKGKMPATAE

B1: Im7 H40W L53A I54A (natural protein)
chain: MELKNSISDYTEAEFVQLLKEIEKENVAATDDVLDVLLEWFVKITEHPDGTDAAYYPSDNRDDSPEGIVKEIKEWRAANGKPGFKQG
modifications: biotin (EZ-link NHS-biotin, 1:1 molar ratio of biotin to protein)
notes: Im7 (colicin E7 immunity protein) with H40W L53A I54A; Spy was made with an N-terminal His6-SUMO tag that was cleaved; also called Im7AAW; partially folded client; source: purified by a similar procedure to Spy
- koff (Spy_(29-124) R43D): 0.601 s⁻¹
- koff (Spy_(29-124) R50D): 0.477 s⁻¹
- koff (Spy_(29-124) K54D R55D): 0.239 s⁻¹
- koff (Spy_(29-124) R61D R62D): 0.262 s⁻¹
- koff (Spy_(29-124) R89D): 0.125 s⁻¹
- koff (Spy_(29-124) H96D): 0.234 s⁻¹
- koff (Spy_(29-124) K121D R122D): 0.349 s⁻¹
- Kd (Spy D26E): 637 nM
- Kd (Spy D26A): 274 nM
- Kd (Spy D26R): 286 nM
